Test results taken from article PMC11678472, “Comparative Analysis of Symmetry Parameters in the E2 Inner Core of the Pyruvate Dehydrogenase Complex” (International Journal of Molecular Sciences, 2024).

Target: the molecule itself
Assay: cryo-EM structure; single-particle analysis of purified truncated E2 (4 uL of 100 nM) on a holey carbon grid, vitrified at 4 °C and 100% humidity; 69,946 particles; reconstructed with C1, C5, D2, T and I symmetry (4.93 to 4.20 Å)

B1: truncated dihydrolipoyl acetyltransferase (E2) of the pyruvate dehydrogenase complex of B. stearothermophilus, amino acids 185 to 425 (catalytic core domain … (domain or fragment, Bacillus stearothermophilus, UniProt P11961 185-425, looked up)
chain: AAAKPATTEGEFPETREKMSGIRRAIAKAMVHSKHTAPHVTLMDEADVTKLVAHRKKFKAIAAEKGIKLTFLPYVVKALVSALREYPVLNTSIDDETEEIIQKHYYNIGIAADTDRGLLVPVIKHADRKPIFALAQEINELAEKARDGKLTPGEMKGASCTITNIGSAGGQWFTPVINHPEVAILGIGRIAEKPIVRDGEIVAAPMLALSLSFDHRMIDGATAQKALNHIKRLLSDPELLL
notes: dihydrolipoyl acetyltransferase (E2) of the pyruvate dehydrogenase complex, Bacillus stearothermophilus, UniProt P11961; Forms an icosahedral inner core built of trimeric units; It says only that I symmetry has 60 elements; The monomer runs at about 32 kDa on SDS-PAGE, more than residues 185-425 alone, so tags are probably present; also called truncated E2; E2 inner core complex; source: E. coli …
Question: B1 was tested. Which “stoichiometry N” value did it give?
Answer: The value was 3.
